Test results reported in article PMC9482650, “Quantitative fragmentomics allow affinity mapping of interactomes” (Nature Communications, 2022).
Values belong to the binder of their own block, whether it stands above or below them.

What was measured:
Assay in all cases: holdup assay
Parameters in all cases: key: below the threshold = too weak to quantify, mostly under pKd 3.1 to 4
[1] = target: MAGI1_2, Q96QZ7
[2] = target: GRIP2_5, Q9C0E4
[3] = target: NHERF4_4, Q86UT5
[4] = target: PTPN3, P26045
PTPN3, P26045, sequence (P26045 505-587): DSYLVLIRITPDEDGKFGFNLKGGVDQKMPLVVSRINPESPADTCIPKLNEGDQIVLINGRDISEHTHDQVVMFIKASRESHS

[5] = target: T1, ARHGAP21, Q5T5U3
T1 sequence (Q5T5U3 45-169, limits assumed, looked up): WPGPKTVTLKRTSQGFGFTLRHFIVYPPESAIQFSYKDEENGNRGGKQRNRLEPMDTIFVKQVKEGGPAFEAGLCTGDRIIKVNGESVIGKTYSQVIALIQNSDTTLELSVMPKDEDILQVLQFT

[6] = target: Inadl_6, Q8NI35
Inadl_6, Q8NI35, sequence (Q8NI35 1058-1167): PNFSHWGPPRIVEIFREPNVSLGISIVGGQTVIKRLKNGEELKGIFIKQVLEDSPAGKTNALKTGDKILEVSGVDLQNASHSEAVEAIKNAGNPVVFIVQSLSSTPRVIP

[7] = target: IL16_4, Q14005
IL16_4, Q14005, sequence (Q14005 1229-1329): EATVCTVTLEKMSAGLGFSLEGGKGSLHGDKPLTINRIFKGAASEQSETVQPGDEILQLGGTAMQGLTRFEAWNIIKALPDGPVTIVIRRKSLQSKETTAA

[8] = target: TJP1_3, Q07157
TJP1_3, Q07157, sequence (Q07157 416-512): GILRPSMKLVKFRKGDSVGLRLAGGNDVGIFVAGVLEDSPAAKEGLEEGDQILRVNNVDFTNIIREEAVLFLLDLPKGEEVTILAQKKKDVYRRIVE

[9] = target: Inadl_2, Q8NI35
Inadl_2, Q8NI35, sequence (Q8NI35 238-335): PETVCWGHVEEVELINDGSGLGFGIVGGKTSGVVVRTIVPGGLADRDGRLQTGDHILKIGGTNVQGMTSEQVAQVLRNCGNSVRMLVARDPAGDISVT

[10] = target: T2, SIPA1L2, Q9P2F8
T2 sequence (Q9P2F8 945-1036, limits assumed, looked up): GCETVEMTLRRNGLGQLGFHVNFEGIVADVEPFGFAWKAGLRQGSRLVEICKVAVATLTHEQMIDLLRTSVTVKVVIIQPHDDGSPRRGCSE

[11] = target: T3, PTPN13_1, Q12923
T3 sequence (Q12923 1088-1188, limits assumed, looked up): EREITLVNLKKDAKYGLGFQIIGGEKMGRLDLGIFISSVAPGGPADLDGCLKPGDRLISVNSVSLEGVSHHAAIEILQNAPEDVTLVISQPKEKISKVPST

[12] = target: T4, RADIL, Q96JH8
T4 sequence (Q96JH8 971-1071, limits assumed, looked up): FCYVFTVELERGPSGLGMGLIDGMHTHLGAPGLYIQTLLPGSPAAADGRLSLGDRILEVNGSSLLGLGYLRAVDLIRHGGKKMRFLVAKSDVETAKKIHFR

[13] = target: T5, MPDZ_5, O75970
T5 sequence (O75970 695-796, limits assumed, looked up): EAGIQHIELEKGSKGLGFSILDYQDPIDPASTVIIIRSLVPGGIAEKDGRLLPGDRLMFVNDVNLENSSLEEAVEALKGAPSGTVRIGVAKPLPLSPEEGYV

[14] = target: T6, CARD11, Q9BXL7
T6 sequence (Q9BXL7 662-765, limits assumed, looked up): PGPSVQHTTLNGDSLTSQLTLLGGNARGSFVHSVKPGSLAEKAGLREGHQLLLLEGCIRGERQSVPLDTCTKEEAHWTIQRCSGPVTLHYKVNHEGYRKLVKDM

[15] = target: T7, ARHGEF11, O15085
T7 sequence (O15085 42-136, limits assumed, looked up): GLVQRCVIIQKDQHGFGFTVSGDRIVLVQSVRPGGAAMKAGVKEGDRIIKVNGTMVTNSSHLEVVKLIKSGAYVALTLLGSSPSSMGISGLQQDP

[16] = target: T8, MPP6, Q9NZW5
T8 sequence (Q9NZW5 125-219, limits assumed, looked up): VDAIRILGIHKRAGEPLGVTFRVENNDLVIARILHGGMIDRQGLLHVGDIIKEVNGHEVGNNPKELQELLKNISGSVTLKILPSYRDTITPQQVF

[17] = target: HTRA2, O43464
HTRA2, O43464, sequence (O43464 355-458): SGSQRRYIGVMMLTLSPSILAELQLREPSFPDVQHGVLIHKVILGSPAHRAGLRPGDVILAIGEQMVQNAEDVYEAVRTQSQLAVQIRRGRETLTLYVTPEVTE

[18] = target: T9, MPDZ_10, O75970
T9 sequence (O75970 1624-1722, limits assumed, looked up): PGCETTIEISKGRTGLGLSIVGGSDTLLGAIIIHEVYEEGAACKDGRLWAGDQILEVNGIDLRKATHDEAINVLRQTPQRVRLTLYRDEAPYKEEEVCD

[19] = target: PDLIM1, O00151
PDLIM1, O00151, sequence (O00151 1-87): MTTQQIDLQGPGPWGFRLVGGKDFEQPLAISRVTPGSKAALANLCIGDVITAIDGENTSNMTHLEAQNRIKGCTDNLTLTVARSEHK

[20] = target: GIPC2, Q8TF65
GIPC2, Q8TF65, sequence (Q8TF65 112-203): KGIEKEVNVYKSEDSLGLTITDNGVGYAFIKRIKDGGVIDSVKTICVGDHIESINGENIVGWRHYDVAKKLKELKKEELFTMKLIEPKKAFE

[21] = target: T10, RAPGEF6, Q8TEU7
T10 sequence (Q8TEU7 525-625, limits assumed, looked up): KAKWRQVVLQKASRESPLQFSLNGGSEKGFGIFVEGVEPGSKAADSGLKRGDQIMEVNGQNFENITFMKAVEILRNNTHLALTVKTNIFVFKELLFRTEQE

[22] = target: Inadl_3, Q8NI35
Inadl_3, Q8NI35, sequence (Q8NI35 359-469): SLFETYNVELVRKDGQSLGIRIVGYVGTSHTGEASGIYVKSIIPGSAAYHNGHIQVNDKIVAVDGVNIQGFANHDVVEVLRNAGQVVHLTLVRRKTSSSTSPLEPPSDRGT

[23] = target: T11, DVL3, Q92997
T11 sequence (Q92997 244-331, limits assumed, looked up): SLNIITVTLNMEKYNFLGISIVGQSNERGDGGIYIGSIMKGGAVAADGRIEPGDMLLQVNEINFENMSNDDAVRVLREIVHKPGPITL

[24] = target: T12, LIN7C, Q9NUP9
T12 sequence (Q9NUP9 88-185, limits assumed, looked up): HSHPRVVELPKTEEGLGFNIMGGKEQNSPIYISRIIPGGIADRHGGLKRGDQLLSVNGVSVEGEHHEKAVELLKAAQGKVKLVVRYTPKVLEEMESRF

[25] = target: ARHGEF12, Q9NZN5-2
ARHGEF12, Q9NZN5-2, sequence (Q9NZN5 other isoform, or with tags, fused parts or gaps): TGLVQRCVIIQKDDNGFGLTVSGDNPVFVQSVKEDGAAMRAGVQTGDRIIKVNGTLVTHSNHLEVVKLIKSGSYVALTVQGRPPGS

[26] = plain residues with an end cap or a label only (N-terminal biotin on a linker: ahx)
[27] = plain residues with an end cap or a label only (N-terminal biotin on a linker: ttds)

NHERF4_4, Q86UT5, sequence (Q86UT5 464-550): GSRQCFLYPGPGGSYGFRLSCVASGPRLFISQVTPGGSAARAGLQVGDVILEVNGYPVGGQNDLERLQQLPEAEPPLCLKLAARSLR
GRIP2_5, Q9C0E4, sequence (Q9C0E4 544-642): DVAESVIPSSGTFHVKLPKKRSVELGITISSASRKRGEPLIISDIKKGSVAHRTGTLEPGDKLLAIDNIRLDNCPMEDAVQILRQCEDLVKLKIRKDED
MAGI1_2, Q96QZ7, sequence (Q96QZ7 456-580): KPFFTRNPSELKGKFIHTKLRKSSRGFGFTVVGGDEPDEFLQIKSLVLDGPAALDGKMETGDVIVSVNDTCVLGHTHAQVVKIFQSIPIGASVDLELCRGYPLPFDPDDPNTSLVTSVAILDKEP

pKd [1, 26]: below the threshold
pKd [2, 26]: below the threshold
pKd [3, 26]: below the threshold
pKd [4, 26]: below the threshold
pKd [5, 26]: below the threshold
pKd [6, 26]: below the threshold
pKd [7, 26]: below the threshold
pKd [8, 26]: below the threshold
pKd [9, 26]: 4.55
pKd [10, 26]: below the threshold
pKd [11, 26]: below the threshold
pKd [12, 26]: 4.2
pKd [13, 26]: 3.85
pKd [14, 26]: below the threshold
pKd [15, 26]: below the threshold
pKd [16, 26]: below the threshold
pKd [17, 26]: below the threshold
pKd [18, 26]: below the threshold
pKd [19, 26]: below the threshold
pKd [20, 26]: below the threshold
pKd [21, 26]: below the threshold
pKd [22, 26]: below the threshold
pKd [23, 26]: 3.61
pKd [24, 26]: below the threshold
pKd [25, 26]: below the threshold
Binder: KKNKDKEYYV [NRXN1, Q9ULB1]

pKd [1, 26]: below the threshold
pKd [2, 26]: below the threshold
pKd [3, 26]: below the threshold
pKd [4, 26]: 4.39
pKd [5, 26]: below the threshold
pKd [6, 26]: 3.81
pKd [7, 26]: below the threshold
pKd [8, 26]: below the threshold
pKd [9, 26]: below the threshold
pKd [10, 26]: below the threshold
pKd [11, 26]: below the threshold
pKd [12, 26]: below the threshold
pKd [13, 26]: below the threshold
pKd [14, 26]: below the threshold
pKd [15, 26]: 4.1
pKd [16, 26]: below the threshold
pKd [17, 26]: below the threshold
pKd [18, 26]: 3.82
pKd [19, 26]: below the threshold
pKd [20, 26]: 3.81
pKd [21, 26]: below the threshold
pKd [22, 26]: below the threshold
pKd [23, 26]: below the threshold
pKd [24, 26]: below the threshold
pKd [25, 26]: 3.71
Binder: EDEDEQVSAV [RAPGEF2, Q9Y4G8]

pKd [1, 27]: below the threshold
pKd [2, 27]: below the threshold
pKd [3, 27]: below the threshold
pKd [4, 27]: below the threshold
pKd [5, 27]: below the threshold
pKd [6, 27]: below the threshold
pKd [7, 27]: below the threshold
pKd [8, 27]: below the threshold
pKd [9, 27]: below the threshold
pKd [10, 27]: below the threshold
pKd [11, 27]: 3.66
pKd [12, 27]: 3.54
pKd [13, 27]: 3.49
pKd [14, 27]: below the threshold
pKd [15, 27]: below the threshold
pKd [16, 27]: 3.52
pKd [17, 27]: below the threshold
pKd [18, 27]: 3.59
pKd [19, 27]: 3.47
pKd [20, 27]: below the threshold
pKd [21, 27]: 3.67
pKd [22, 27]: below the threshold
pKd [23, 27]: below the threshold
pKd [24, 27]: below the threshold
pKd [25, 27]: 3.66
Binder: QPGTPTRTAV [MAP2K2, P36507]
